Assay results: CN116926038A, “一种TrkA的抗原表位肽及其应用” (Guangdong HEC Pharmaceutical Co Ltd, priority 2022, dated 2023)
Ends that are not written are not given here.

Assays:
[1] = target: binding of Human-TrKA receptor and its ligand Human-NGF (Human-TrKA受体与其配体Human-NGF结合) (Homo sapiens, UniProt P04629); experiment: ELISA blocking of Human-TrKA/Human-NGF binding by serum of peptide-immunised rabbits (Example 19); settings: 300 μg each time
[2] = target: T1, Human-TrKB (Homo sapiens, UniProt Q16620); experiment: ELISA binding of serum of peptide-immunised mice to Human-TrKB (Example 18); settings: serum dilutions 1:50 to 1:6400; blank serum as control
T1 construct: purchased Sino Biological 10047-H08H
T1 sequence (Q16620 32-430 limits assumed): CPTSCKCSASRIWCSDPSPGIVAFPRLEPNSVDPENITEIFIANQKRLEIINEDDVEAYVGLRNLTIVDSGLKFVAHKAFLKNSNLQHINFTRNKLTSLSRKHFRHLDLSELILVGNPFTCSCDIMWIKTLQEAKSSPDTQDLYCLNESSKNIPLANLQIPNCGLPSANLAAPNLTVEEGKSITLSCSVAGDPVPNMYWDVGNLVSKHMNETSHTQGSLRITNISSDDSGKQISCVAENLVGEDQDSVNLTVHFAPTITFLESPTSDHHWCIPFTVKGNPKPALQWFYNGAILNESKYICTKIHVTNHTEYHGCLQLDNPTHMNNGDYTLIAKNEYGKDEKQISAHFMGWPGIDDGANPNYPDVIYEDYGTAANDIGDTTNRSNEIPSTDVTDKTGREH

[3] = target: T2, Human-P75 (Homo sapiens, UniProt P08138); experiment: ELISA binding of serum of peptide-immunised mice to Human-P75 (Example 18); settings: serum dilutions 1:50 to 1:6400; blank serum as control
T2 construct: purchased Sino Biological 13184-H08H
T2 sequence (P08138 29-250 limits assumed): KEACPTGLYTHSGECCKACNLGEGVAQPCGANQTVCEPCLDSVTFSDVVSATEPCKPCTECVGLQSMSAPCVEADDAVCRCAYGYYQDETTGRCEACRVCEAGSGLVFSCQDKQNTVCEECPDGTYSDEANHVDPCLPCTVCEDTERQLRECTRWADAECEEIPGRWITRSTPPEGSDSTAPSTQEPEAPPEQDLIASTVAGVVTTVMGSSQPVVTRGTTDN

[4] = target: T3, Human-TrKC (Homo sapiens, UniProt Q16288); experiment: ELISA binding of serum of peptide-immunised mice to Human-TrKC (Example 18); settings: serum dilutions 1:50 to 1:6400; blank serum as control
T3 construct: purchased Sino Biological 10048-H08H
T3 sequence (Q16288 32-429 limits assumed): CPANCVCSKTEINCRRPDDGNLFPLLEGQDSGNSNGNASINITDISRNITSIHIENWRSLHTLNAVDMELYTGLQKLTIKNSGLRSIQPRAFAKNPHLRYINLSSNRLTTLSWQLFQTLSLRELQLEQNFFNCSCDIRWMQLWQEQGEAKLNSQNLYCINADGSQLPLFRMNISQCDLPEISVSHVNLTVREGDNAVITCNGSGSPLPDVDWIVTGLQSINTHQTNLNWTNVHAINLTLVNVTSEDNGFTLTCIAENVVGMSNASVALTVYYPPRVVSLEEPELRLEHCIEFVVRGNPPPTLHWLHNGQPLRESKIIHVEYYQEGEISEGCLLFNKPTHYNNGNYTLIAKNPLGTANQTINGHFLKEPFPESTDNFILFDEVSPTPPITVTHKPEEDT

Sequence of binding of Human-TrKA receptor and its ligand Human-NGF (Human-TrKA受体与其配体Human-NGF结合) (P04629 33-796): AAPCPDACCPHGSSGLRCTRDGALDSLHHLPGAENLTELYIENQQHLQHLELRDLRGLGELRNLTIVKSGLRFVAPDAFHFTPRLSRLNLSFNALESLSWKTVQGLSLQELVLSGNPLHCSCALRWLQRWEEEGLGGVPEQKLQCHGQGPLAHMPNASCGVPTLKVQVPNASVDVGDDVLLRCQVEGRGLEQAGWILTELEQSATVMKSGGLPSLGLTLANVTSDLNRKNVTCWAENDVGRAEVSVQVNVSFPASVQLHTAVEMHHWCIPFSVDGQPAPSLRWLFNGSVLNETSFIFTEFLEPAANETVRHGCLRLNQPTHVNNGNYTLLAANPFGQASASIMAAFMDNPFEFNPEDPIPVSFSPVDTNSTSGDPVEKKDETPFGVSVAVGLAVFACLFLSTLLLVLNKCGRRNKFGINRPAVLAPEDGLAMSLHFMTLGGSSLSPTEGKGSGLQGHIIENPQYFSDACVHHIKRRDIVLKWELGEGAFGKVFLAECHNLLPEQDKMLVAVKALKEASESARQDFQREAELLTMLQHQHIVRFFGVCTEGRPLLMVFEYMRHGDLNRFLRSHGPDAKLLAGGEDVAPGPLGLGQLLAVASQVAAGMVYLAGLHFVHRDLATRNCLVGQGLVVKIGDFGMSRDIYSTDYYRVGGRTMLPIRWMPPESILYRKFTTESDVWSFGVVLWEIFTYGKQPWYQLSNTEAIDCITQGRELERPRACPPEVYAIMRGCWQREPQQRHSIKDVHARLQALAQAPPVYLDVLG

MAAFMDNPFEFNPED-C-KLH: 多肽MAAFMDNPFEFNPED-C-KLH (SEQ ID NO:18; 钥孔血蓝蛋白(KLH)) (not fully specified (C-terminus); also: KLH carrier conjugated via C-terminal Cys)
Human-TrkA/Human-NGF binding signal (OD450) versus blank serum ([1]; immunised rabbit serum diluted 1:2): 显著性降低
Human-TrkA/Human-NGF binding signal (OD450) versus blank serum ([1]; immunised rabbit serum, no dilution stated): 显著性降低
binding of immunised mouse serum [2]: 没有明显结合
binding of immunised mouse serum [3]: 没有明显结合
binding of immunised mouse serum [4]: 没有明显结合
